Test results as given in PMC5021983.

What was measured:
Test in all cases: FRET titration
[1] = test system: MeCP2 (human); settings: EMSA: 5 nM nucleosome, 130 mM NaCl, 10% glycerol, 10 mM Tris-HCl pH 8, 0.005% Tween 20, 0.5x TE, room temperature 3 min, 5% native PAGE in 0.3x TTE; FRET: 5 nM …
[2] = test system: histone H1 (Drosophila); settings: EMSA: 5 nM nucleosome, 130 mM NaCl, 10% glycerol, 10 mM Tris-HCl pH 8, 0.005% Tween 20, 0.5x TE, room temperature 3 min, 5% native PAGE in 0.3x TTE; FRET: 5 nM …
[3] = test system: Gal4; settings: EMSA: 5 nM nucleosome, 130 mM NaCl, 10% glycerol, 10 mM Tris-HCl pH 8, 0.005% Tween 20, 0.5x TE, room temperature 3 min, 5% native PAGE in 0.3x TTE, FRET: 5 nM …

## 601 mononucleosome with Gal4 site, 247 bp (FRET construct)
[1]
  K half: 20.7 nM
[2]
  K half: 12.1 nM
[3]; no CAP, 5 nM nucleosome, Hill coefficient -3.76 ± 2.16
  K half: 3.06 nM
[3]; nucleosome prebound with 25 nM MeCP2, Hill coefficient -1.47 ± 0.22
  K half: 12.2 nM
